Here are results for one molecule from US20150253341A1 (Merck Sharp & Dohme, published 2015).

The target of the test is human Tau protein (human, UniProt P10636-8 1-441, limits assumed). The test can be described thus: method not stated.
Chain of human Tau protein (P10636 other isoform, or with tags, fused parts or gaps limits assumed): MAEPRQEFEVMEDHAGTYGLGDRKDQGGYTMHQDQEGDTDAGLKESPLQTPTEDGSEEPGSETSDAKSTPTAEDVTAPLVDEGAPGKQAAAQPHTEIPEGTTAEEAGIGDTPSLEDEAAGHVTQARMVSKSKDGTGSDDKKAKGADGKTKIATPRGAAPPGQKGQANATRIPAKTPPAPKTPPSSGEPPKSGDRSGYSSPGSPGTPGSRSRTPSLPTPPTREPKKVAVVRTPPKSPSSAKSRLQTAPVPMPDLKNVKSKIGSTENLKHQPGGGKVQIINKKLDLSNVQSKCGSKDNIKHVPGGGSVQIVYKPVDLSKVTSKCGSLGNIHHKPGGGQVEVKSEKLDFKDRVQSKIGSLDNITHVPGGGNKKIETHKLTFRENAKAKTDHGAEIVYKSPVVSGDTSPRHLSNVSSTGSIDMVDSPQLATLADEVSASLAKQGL

B1: mouse monoclonal anti-Tau antibody clone 13A6 (antibody, V domains shown)
VH: EVQLQQSGAELVRPGASVKLPCTASGFNIKDDYMNWVMQRPERGLEWIGWIDPENGDTAYASKFQGKATMTADTSSNTAYLQLSSLTSEDTAVYYCTSGGRFDYWGQGTSLTVSS
VL: DVLMTQTPLSLPVSLGDQASISCRSSQSIVHSNGSTYLEWYLQKPGQSPKLLIYKVSNRFSGVPDRFSGSGSGTDFTLKINRVEAEDLGVYYCFQGSHVPWTFGGGTKLEIK
notes: Mouse monoclonal from a hybridoma; also called mAb 13A6; antibody 13A6
Broadly, the Kd is the constant that tells how readily two partners part at equilibrium. B1 had a Kd of 9.7 nM.
